From the supplement of paper PMC7877785 come the findings set out here.

The nature of the data set: self-splicing fitness, log relative to wild type (ln ratio); higher = more splicing; Tetrahymena group I intron in knt gene, E. coli kanamycin selection, DiMSum; sequences stand for … in CUCUCU…GGAGGGAAAAGUUAUCAGGCAUGCACCUGGUAGCUAGUCUUUAAACCAAUAGAUUGCAUCGGUUUAAAAGGCAAGACCGUCAAAUUGCGGGAAAGGGGUCAACAGCCGUUCAGUACCAAGUCUCAGGGGAAACUUUGAGAUGGCCUUGCAAAGGGUAUGGUAAUAAGCUGACGGACAUGGUCCUAACCACGCAGCCAAGUCCUAAGUCAACAGAUCUUCUGUUGAUAUGGAUGCAGUUCACAGACUAAAUGUCGGUCGGGGAAGAUGUAUUCUUCUCAUAAGAUAUAGUCGGACCUCUCCUUAAUGGGAGCUAGCGGAUGAAGUGAUGCAACACUGGAGCCGCUGGGAACUAAUUUGUAUGCGAAAGUAUAUUGAUUAGUUUUGGAGUACUCGUGGUCG
The method in brief: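 The eight P1ex-region nucleotides of an intron in the knt kanamycin-resistance gene on pET-22b(+) were all randomised and the library put into E. coli BL21(DE3). Six replicate transformations were grown overnight at 37°C or 30°C on LB agar with or without 25 μg/mL kanamycin, together with 100 μg/mL carbenicillin, 50 μM IPTG and 0.2% rhamnose. Colonies were pooled and amplicon-sequenced on an Illumina HiSeq 2500. Fitness from DiMSum is the error-weighted combination of wild-type-normalised replicate fold changes, kanamycin over none.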

± gives the uncertainty stated by the source.

UGCUAGCAAUAUUACGACUG: the “self-splicing fitness (ln)” value runs as follows: (30 °C) 0.165 ± 0.081; (37 °C) 0.259 ± 0.11.
As to AAGUAGCAAUAUUACGUUUA, the “self-splicing fitness (ln)” value reads like this: (30 °C) -1.63 ± 0.13; (37 °C) -0.835 ± 0.11.
On the same counts, the results for AGUUAGCAAUAUUACGACUA are -0.154 ± 0.18 and 0.0802 ± 0.17.
On the same counts, the results for GCGCAGCAAUAUUACGUAUC are -0.438 ± 0.068 and -0.609 ± 0.085.
Turning to AGAAAGCAAUAUUACGCAUC, the “self-splicing fitness (ln)” value (30 °C) is -2.53 ± 0.34.
As to UCACAGCAAUAUUACGUCUU, the “self-splicing fitness (ln)” value runs as follows: (30 °C) -1.68 ± 0.12; (37 °C) -2.4 ± 0.16.
On the same counts, the results for GUUUAGCAAUAUUACGUGUA are -2.53 ± 0.092 and -0.725 ± 0.077.
The corresponding values for CAUCAGCAAUAUUACGUCAG are -0.52 ± 0.062 and 0.43 ± 0.092.
The corresponding values for UGACAGCAAUAUUACGACAG are -0.934 ± 0.065 and 0.0335 ± 0.084.
With ACUUAGCAAUAUUACGUUUG, the “self-splicing fitness (ln)” value (30 °C) is -3.01 ± 0.12 and the “self-splicing fitness (ln)” value (37 °C) was -2.09 ± 0.16.
As for GUCGAGCAAUAUUACGAAUA, the “self-splicing fitness (ln)” value is -2.42 ± 0.36 (30 °C) and -2.1 ± 0.34 (37 °C).
On the same counts, the results for UACGAGCAAUAUUACGUAGU are -3.39 ± 0.32 and -2.95 ± 0.33.
On the same counts, the results for GCCAAGCAAUAUUACGACUC are -0.25 ± 0.08 and 0.136 ± 0.098.
For UAGCAGCAAUAUUACGACCG, the “self-splicing fitness (ln)” value reads like this: (30 °C) -0.887 ± 0.13; (37 °C) -0.0437 ± 0.22.
The corresponding values for UUGUAGCAAUAUUACGACCG are -0.716 ± 0.36 and -0.156 ± 0.26.
The corresponding values for ACCCAGCAAUAUUACGCUUC are -2.01 ± 0.076 and -1 ± 0.095.
For the sequence CACGAGCAAUAUUACGCGGC, the “self-splicing fitness (ln)” value (37 °C) was -1.38 ± 0.22.
Regarding UGUGAGCAAUAUUACGCGCG, the “self-splicing fitness (ln)” value (30 °C) is -1.13 ± 0.43.
Turning to GAGCAGCAAUAUUACGAGCC, the “self-splicing fitness (ln)” value runs as follows: (30 °C) -0.545 ± 0.19; (37 °C) -0.285 ± 0.21.
The corresponding values for GGAAAGCAAUAUUACGUCUU are -0.00168 ± 0.13 and -0.112 ± 0.15.
As to ACCGAGCAAUAUUACGUAGA, the “self-splicing fitness (ln)” value is, setting by setting: (30 °C) -4.48 ± 0.29; (37 °C) -2.69 ± 0.18.
The corresponding values for UGAGAGCAAUAUUACGAUCU are -2.49 ± 0.45 and -1.1 ± 0.45.
The corresponding values for CGUUAGCAAUAUUACGUUUC are -3.28 ± 0.2 and -2.19 ± 0.21.
On the same counts, the results for AAUAAGCAAUAUUACGGGUG are -1.59 ± 0.12 and -1.04 ± 0.11.
On to UCGUAGCAAUAUUACGUGCC, for which the “self-splicing fitness (ln)” value was -3.73 ± 0.33 (30 °C) and -1.13 ± 0.25 (37 °C).
Turning to UCCCAGCAAUAUUACGGAUU, the “self-splicing fitness (ln)” value reads like this: (30 °C) -2.66 ± 0.092; (37 °C) -0.582 ± 0.08.
On the same counts, the results for GAGUAGCAAUAUUACGAGUC are -3.59 ± 0.34 and -1.48 ± 0.27.
On the same counts, the results for UGUAAGCAAUAUUACGAAUC are -1.82 ± 0.25 and -2.33 ± 0.49.
For GUGUAGCAAUAUUACGCUGU, the “self-splicing fitness (ln)” value (30 °C) was -2.96 ± 0.2 and the “self-splicing fitness (ln)” value (37 °C) was -3.45 ± 0.39.
CGUAAGCAAUAUUACGGGGU: the “self-splicing fitness (ln)” value (30 °C) was -3.79 ± 0.18 and the “self-splicing fitness (ln)” value (37 °C) is -3.36 ± 0.25.
On the same counts, the results for GCAGAGCAAUAUUACGUUUG are -3.98 ± 0.27 and -2.77 ± 0.25.
As to CAUAAGCAAUAUUACGUUCU, the “self-splicing fitness (ln)” value was -3.28 ± 0.23 (30 °C) and -3.1 ± 0.3 (37 °C).
On the same counts, the results for ACCCAGCAAUAUUACGCCUC are -1.05 ± 0.084 and -0.0787 ± 0.11.
On the same counts, the results for CCCCAGCAAUAUUACGCUCC are -3.09 ± 0.36 and -2.91 ± 0.47.
The corresponding values for ACGAAGCAAUAUUACGAGAG are -3.39 ± 0.28 and -2.53 ± 0.22.
Regarding CCUUAGCAAUAUUACGUUCC, the “self-splicing fitness (ln)” value (30 °C) was -3.14 ± 0.31 and the “self-splicing fitness (ln)” value (37 °C) is -2.51 ± 0.34.
On the same counts, the results for GCACAGCAAUAUUACGGUUU are -0.633 ± 0.047 and 0.145 ± 0.057.
On to AUCGAGCAAUAUUACGGCGU, for which the “self-splicing fitness (ln)” value is -0.0628 ± 0.11 (30 °C) and -0.183 ± 0.11 (37 °C).
